Changes are numbered by the printed parent chain. Where no end group is shown, it is not given here. [ ]: non-standard residue; d: D form. The star is where a group is joined. EDDnp = O=[N+]([O-])c1ccc(NCCN*)c([N+](=O)[O-])c1; AlaP = not defined here
Assays:
wtPR3 = target: T1, wtPR3 (Homo sapiens, UniProt P24158); assay: Hydrolysis of FRET substrates, specificity constant kcat/KM; assay type: biochemical
T1 sequence (P24158 28-248): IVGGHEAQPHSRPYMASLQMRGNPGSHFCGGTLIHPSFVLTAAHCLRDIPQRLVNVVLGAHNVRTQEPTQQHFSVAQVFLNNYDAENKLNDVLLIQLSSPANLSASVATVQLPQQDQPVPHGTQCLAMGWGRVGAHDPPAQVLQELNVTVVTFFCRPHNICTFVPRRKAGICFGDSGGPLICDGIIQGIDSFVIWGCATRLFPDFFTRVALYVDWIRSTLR
Description: (§1) Another critical difference between the two proteases is the replacement of a charged arginyl residue at position 217 in HNE by an Ile in PR3 in the vicinity of the S4 subsite. We investigated the importance of the S4 subsite in PR3 by producing two recombinant PR3 molecules with a […] substitution at position 99 (PR3K99L) and an Ile for Arg substitution at position 217 (PR3I217R). Wild type and recombinant PR3 were then assayed with FRET substrates derived from the PR3/NE substrate Abz-QPMAVVQSVPQ-EDDnp, and bearing either a negatively charged residue (Abz-QDMAVVQSVPQ-EDDnp) or a positively charged residue (QKMAVVQSVPQ-EDDnp) at P4. Wild type and recombinant proteases all cleave the original substrate at the V—V bond with about the same kcat/Km (Table 2).
We observed that a large panel of amino acid residues could be accommodated at the PR3 P3 subsite using a series of FRET substrates but a Tyr was preferred at this position (Table 3).

PR3I217R [1] = target: T2, PR3I217R (Homo sapiens, UniProt P24158, I221R); assay: as above; assay type: biochemical
T2 construct: made in house; host or cells: Drosophila S2 cells
T2 sequence (P24158 28-248 I221R limits assumed): T1 sequence (P24158 28-248) with I194R
Description: (§2) Recombinant PR3K99L and […] were produced in Drosophila S2 cells using the calcium phosphate method, and stable cell lines were selected using puromycin. Proteins were purified by affinity chromatography on Chelating Sepharose and analyzed by SDS-PAGE. The total protein concentration was determined with a BCA Protein Assay
as §1

PR3K99L [2] = target: T3, PR3K99L (Homo sapiens, UniProt P24158, K115L); assay: as above; assay type: biochemical
T3 construct: made in house; host or cells: Drosophila S2 cells
T3 sequence (P24158 28-248 K115L limits assumed): T1 sequence (P24158 28-248) with K88L
Description: as §2, §1

PR3I217R [3] = target: T2, PR3I217R; assay: Residual activity of recombinant PR3 mutant in presence of increasing amounts of compound; assay type: biochemical
Description: as §2
(§3) Phosphonate inhibitors and their biotinylated and fluorescent derivatives were synthesized, purified and controlled by mass spectrometry as reported. Their purity was checked by HPLC (data not shown). Purified Ac-Asp-Tyr-Asp-Ala^P(O—C6H4-4-Cl)2 (compound 1) and Ac-Pro-Tyr-Asp-Ala^P(O—C6H4-4-Cl)2 (compound 2) were first assayed for their inhibitory properties by measuring the residual activity of the human neutrophil serine proteases PR3, HNE and CatG in the presence of increasing amounts of each compound. We used for this purpose the FRET substrates that we developed previously for each protease (18). An almost complete inhibition of PR3 (1 nM final) was obtained after a 30 min incubation time with 20 μM of compound 1 (FIG. 1) and 0.3 μM of compound 2 (FIG. 2). Recombinant PR3K99L, […], HNE and CatG were used in the same experimental conditions. […] This emphasizes the importance of the S2 and S4 subsites to discriminate between PR3 and HNE specificities. Significant inhibition of HNE was obtained using about 100 times more Ac-Pro-Tyr-Asp-Ala^P(O—C6H4-4-Cl)2 than required to inhibit PR3. […] We confirmed this observation kinetically by measuring the second order rate constants kobs/l by competition experiments between the PR3 substrate and each inhibitor (17). As expected the second order rate constant kobs/l for compound 2 was about 100 times greater than that for compound 1 (see Table 1).

PR3K99L [4] = target: T3, PR3K99L; assay: as above; assay type: biochemical; conditions: Lys99 replaced by Leu in S2 subsite
Description: as §2, §3

[5] = Stability of inhibitors in neutrophil lysate (preincubation before adding substrates); assay type: in vitro ADME, human; conditions: one hour preincubation of neutrophil lysate-inhibitor mixture
Excerpt: (§4) We first studied the stability and the selectivity of compound 1, 2 and their biotinylated derivatives in a lysate of purified human neutrophils. […] Further, PR3 was selectively inactivated in the neutrophil lysate as shown by western blotting using biotinylated inhibitors.

PR3 [6] = target: T4, PR3 (Homo sapiens, UniProt P24158); assay: Inhibition of PR3 in a lysate of purified human neutrophils; assay type: biochemical; conditions: conditions as with purified proteases
T4 construct: in a lysate of purified human neutrophils; endogenous in cells; host or cells: purified human neutrophils (lysate)
T4 sequence (P24158 28-248): T1 sequence (P24158 28-248)
Excerpt: as §4

CatG [7] = target: T5, CatG (Homo sapiens, UniProt P08311); assay: Residual activity of purified protease with FRET substrate in presence of increasing amounts of compound; assay type: biochemical; conditions: CatG 1 nM, same experimental conditions as PR3
T5 sequence (P08311 21-244): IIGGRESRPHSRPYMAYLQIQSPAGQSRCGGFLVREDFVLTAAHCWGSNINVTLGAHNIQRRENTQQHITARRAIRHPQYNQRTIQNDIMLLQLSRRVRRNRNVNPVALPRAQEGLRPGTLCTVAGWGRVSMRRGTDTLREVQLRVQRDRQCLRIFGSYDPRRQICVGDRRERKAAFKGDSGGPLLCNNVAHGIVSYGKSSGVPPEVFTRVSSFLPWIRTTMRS
Excerpt: as §3

HNE [8] = target: T6, HNE (Homo sapiens, UniProt P08246); assay: as above; assay type: biochemical; conditions: HNE 1 nM, same experimental conditions as PR3
T6 sequence (P08246 30-267): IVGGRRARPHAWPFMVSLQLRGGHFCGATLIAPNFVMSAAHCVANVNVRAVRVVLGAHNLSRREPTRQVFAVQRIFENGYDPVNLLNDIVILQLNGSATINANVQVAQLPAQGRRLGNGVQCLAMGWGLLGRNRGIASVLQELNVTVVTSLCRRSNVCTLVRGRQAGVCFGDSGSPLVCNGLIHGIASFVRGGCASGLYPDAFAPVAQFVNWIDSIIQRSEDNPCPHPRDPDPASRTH
Excerpt: as §3

PR3 [9] = target: T4, PR3; assay: as above; assay type: biochemical; conditions: PR3 1 nM final, 30 min incubation
Excerpt: as §3

Elastase = target: T7, Elastase (Homo sapiens, UniProt P08246); assay: Protease inhibition assay, second order rate constant kobs/[I] (method of Tian and Tsou); assay type: biochemical; conditions: n.s where no significant inhibition
T7 sequence (P08246 30-267): T6 sequence (P08246 30-267)
Description: (§5) The inactivation of proteases by substrate analog inhibitors in the presence of the substrate by competition for the enzyme-binding site, was measured by the method of Tian and Tsou (17). In this system, product formation in the presence of an irreversible inhibitor approaches an asymptote, as described by
(§6) log([P∞]−[P])=log [P∞]−0.43A[Y]t
(§7) where [P∞] is the concentration of product formed at time approaching infinity, [P] is the concentration of product at time t, [Y] is the inhibitor concentration, and A is the apparent inhibition rate constant in the presence of the substrate. A is given by
(§8) where k+0 is the rate constant for association of the inhibitor with the enzyme, K^−1 is the inverted Michaelis constant, and [S] the substrate concentration. The apparent inhibition rate constant A is the slope of a plot of log([P∞]−[P]) against t, to give the second-order rate constant of inhibition k+0

Proteinase 3 = target: T8, Proteinase 3 (Homo sapiens, UniProt P24158); assay: as above; assay type: biochemical
T8 sequence (P24158 28-248): T1 sequence (P24158 28-248)
Description: The compounds of the invention are advantageously selective inhibitors of PR3. […] As described under the Examples below (see PR3 inhibition assay), and as is generally known, efficacy of particular inhibitors against a target protease, for example, recombinant human PR3, is determined by combining the target with a substrate (for example Suc-AanV-SBzI), both in the absence of the inhibitor and in the present of different concentrations of such inhibitor to be tested. Typically, the efficacy of irreversible inhibitors are measured in terms of the second order rate constant of inhibition value (11) or kobs/l. Preferred inhibitors of the invention have typically a kobs/I of more than 10 M^−1s^−1, preferably more than 100 M^−1s^−1, and more preferably of more than […].
as §5, §6, §7, §8

CatG [10] = target: T5, CatG; assay: Inhibition of protease activity in crude lung secretions of patients (IPF, cystic fibrosis); assay type: biochemical; conditions: 30 min incubation, IPF and CF samples
HNE [11] = target: T6, HNE; assay: as above; assay type: biochemical; conditions: 30 min incubation, IPF and CF samples
PR3 [12] = target: T4, PR3; assay: as above; assay type: biochemical; conditions: 30 min incubation, IPF and CF samples
Description: Crude lung secretions of patients with chronic inflammatory disorders associating significant neutrophil recruitment (IPF, Cystic fibrosis) were used as biological material to assay the efficacy of phosphonate inhibitors. We first measured the rate of cleavage of the PR3 substrate in >3 IPF and >3 CF crude samples before and after incubation with compounds 2 and 4 (×μM final). All crude samples cleaved the PR3 substrate in the absence of inhibitor and the cleavage always occurred at the expected bond, i.e. the cleavage bond of PR3, as checked by HPLC. The PR3 concentration was in the 0.1-1 μM range in lung secretions, based on the rate of substrate hydrolysis. […] Further, the rate of PR3 inactivation in a crude biological sample […] that of purified PR3, which means that there is no adverse effect impairing the PR3 inhibition in lung secretions of patients with inflammatory disorders.

Substance | factor of decrease of kcat/Km versus original substrate, wtPR3 (wtPR3) | factor of increase of kcat/Km versus original substrate, PR3I217R (PR3I217R [1]) [times] | cleavage by PR3K99L (PR3K99L [2]) | inhibition of the Ile217 to Arg217 PR3 mutant compared with PR3K99L (PR3I217R [3]) | sensitivity of PR3K99L to inhibition compared with wt PR3 (PR3K99L [4]) | inhibition potential after preincubation in neutrophil lysate [5] | PR3 activity in neutrophil lysate (PR3 [6]) | inhibition of CatG (CatG [7]) | inhibition of HNE (HNE [8]) | concentration giving almost complete inhibition of PR3 (PR3 [9]) [µM] | Elastase kobs/[I] (Elastase) | Proteinase 3 kobs/[I] (Proteinase 3) [M⁻¹ s⁻¹] | CatG activity in crude lung secretions (CatG [10]) | HNE activity in crude lung secretions (HNE [11]) | hydrolysis of PR3 substrate in crude lung secretions (PR3 [12]) | kobs/I range (Proteinase 3; PR3)
ABZ-Gln-Asp-Met-Ala-Val-Val-Gln-Ser-Val-Pro-Gln-EDDnp (Abz-QDMAVVQSVPQ-EDDnp) [FRET substrate with negatively charged residue at P4] | 3 | 6 | completely resists cleavage | – | – | – | – | – | – | – | – | – | – | – | – | –
Ac-Asp-Tyr-Asp-Ala^P(O—C6H4-4-Cl)2 (Ac-DYD[AlaP]; not fully specified (C-terminus); printed as Ac-Asp-Tyr-Asp-Ala^P(O—C6H4-4-Cl)2; reading uncertain; also: C-terminal Ala as phosphonate analogue (Ala^P)) [Compound 1] | – | – | – | more efficient toward this mutant | far less sensitive to inhibition | No loss of the inhibition potential | totally inactivated | no significant inhibition | no significant inhibition | 20 | n.s | 1.9 ± 0.3 | – | – | – | –
Biotin-Pro-Tyr-Asp-Ala^P(O—C6H4-4-Cl)2 [Compound 4] | – | – | – | – | – | – | – | – | – | – | n.s | 4168 ± 553 | remained unchanged | remained unchanged | total inhibition | ~10^3 M^−1s^−1

From US20160257710A1, “SELECTIVE INHIBITORS OF PROTEINASE 3” (INSERM (INSTITUT NATIONAL DE LA SANTÉ ET LA RECHERCHE …, priority 2013, published 2016)
